“Also recorded” adds a separate entry of the source. Blank lines part the entries; values can stand above or below the molecule they belong to.
Experiments:
Assay type in all cases: biochemical
p105 [1] = molecular target: T1, p105 (Homo sapiens, UniProt P19838); assay: Competition by synthetic KPC1-derived peptides of p105 ubiquitination by KPC1-Δ1-967 in reconstituted cell-free system; settings: compared to 6 amino acids ILVRLW peptide
T1 sequence (P19838 1-968): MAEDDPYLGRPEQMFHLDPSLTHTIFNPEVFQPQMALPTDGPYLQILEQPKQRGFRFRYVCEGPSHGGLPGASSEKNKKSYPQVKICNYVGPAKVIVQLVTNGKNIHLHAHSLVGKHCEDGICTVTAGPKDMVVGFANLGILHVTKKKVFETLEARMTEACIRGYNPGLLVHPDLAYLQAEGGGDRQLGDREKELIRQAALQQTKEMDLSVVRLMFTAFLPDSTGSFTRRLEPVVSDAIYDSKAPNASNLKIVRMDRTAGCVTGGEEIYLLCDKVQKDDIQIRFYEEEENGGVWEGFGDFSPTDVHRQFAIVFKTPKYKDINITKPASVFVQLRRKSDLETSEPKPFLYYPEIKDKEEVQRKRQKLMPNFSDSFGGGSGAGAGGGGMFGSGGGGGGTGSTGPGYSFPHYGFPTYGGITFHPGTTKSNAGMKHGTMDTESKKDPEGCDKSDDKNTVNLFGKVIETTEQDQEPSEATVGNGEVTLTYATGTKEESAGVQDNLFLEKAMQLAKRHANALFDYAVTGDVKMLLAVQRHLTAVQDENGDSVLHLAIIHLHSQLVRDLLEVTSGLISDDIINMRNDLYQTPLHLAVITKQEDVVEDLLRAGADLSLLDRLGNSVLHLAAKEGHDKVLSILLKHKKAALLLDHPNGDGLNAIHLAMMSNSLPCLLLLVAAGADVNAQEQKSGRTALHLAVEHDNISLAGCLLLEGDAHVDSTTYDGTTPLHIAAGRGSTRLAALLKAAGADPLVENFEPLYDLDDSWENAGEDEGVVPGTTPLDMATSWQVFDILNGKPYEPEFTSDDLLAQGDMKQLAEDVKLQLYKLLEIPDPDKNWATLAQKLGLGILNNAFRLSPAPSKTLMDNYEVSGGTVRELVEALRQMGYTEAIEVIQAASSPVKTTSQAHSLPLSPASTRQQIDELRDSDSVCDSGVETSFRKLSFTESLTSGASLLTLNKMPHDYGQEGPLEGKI
Excerpt: Presented is the change (in %) of unconjugated p105 remained following addition of increasing concentrations of the peptides (compared to a system to which a peptide was not added; lane 3). Amid denotes N-terminal amidation and Ac denotes C-terminal acetylation.
Presented is the change (in %) of unconjugated p105 remained following addition of increasing concentrations of the peptides (compared to a system to which a peptide was not added; lane 2).
To further confirm that 7 amino acids WILVRLW of KPC1-Δ1-967 (SEQ ID. No. 5) are involved in the interaction with p105, an experiment was designed in which the binding of p105 to the ligase was competed with a synthetic peptides derived from KPC1.

p105 [2] = molecular target: T1, p105; assay: Ubiquitination of p105 by purified KPC1 species in cell-free conjugation assay; settings: reconstituted cell-free system, in vitro translated 35S-labeled p105, purified Ub, E1, E2, UbAl, ATP
Excerpt: FIGS. 4A and 4B represent western blots showing in vitro ubiquitination of p105 by mutated species of KPC1: FIG. 4A: In vitro translated and ^35S-labeled p105 was ubiquitinated by purified KPC1-Δ1-967-6xHIS (lanes 2-4) or KPC1-Δ1-974-6xHIS (lanes 5-7) in a reconstituted cell-free system. 4B) In vitro translated and ^355-labeled p105 was ubiquitinated by purified KPC1-Δ1-967-6xHIS (lanes 2,5,6), KPC1-Δ1-974-6xHIS (lane 3), KPC1-Δ967-1043-6xHIS (lane 4), WILVRLW-KPC1-Δ1-1039-6xHIS (lanes 7-8) or WILVRLW-KPC1-Δ1-1061-6xHIS (lanes 9-10) in a reconstituted cell-free system.
In order to assess if the interaction between two proteins leads to the conjugation of the substrate p105, ubiquitination reaction was performed in cell free system. The conjugation reaction was carried out in the presence of purified Ub, E1, E2, UbAl, ATP and KPC1—either wild-type or different mutant species. Samples were resolved via SDS-PAGE and the 35S-labeled p105 and its adducts were visualized using autoradiography. […] In addition, the shorter versions of KPC1 in which the 7 amino acids sequence were brought closer to RING domain, the active site of the enzyme were prepared. Both truncated KPC1 proteins that harbor the 7 amino acid sequence, WILVRLW-KPC1-Δ1-1039 (SEQ ID. No. 6) and WILVRLW-KPC1-Δ1-1061 (SEQ ID. No. 7), modified p105 (FIG. 4B, lanes 7-10).

p105 [3] = molecular target: T1, p105; assay: Processing of p105 by purified proteasome in cell free system in presence of KPC1 deleted species; settings: 35S-labeled p105 (FIG. 7)
Excerpt: In vitro translated and ^355-labeled p105 was processed by purified proteasome (lanes 2-7) in the presence of purified KPC1-Δ1-967-6xHIS (lanes 4-5) or KPC1-Δ1-974-6xHIS (lanes 6-7) as indicated. Lane 8 represents processing of p105 in the system that contained Fraction 2. Cell extract is fractionated over the anion-exchange resin diethylaminoethyl (DEAE)-cellulose, where ubiquitin is eluted in Fraction I, the unabsorbed, flow-through material that contains also certain E2 enzymes. Fraction II, the high salt eluate, contains E1, the remaining E2s, all the E3s, and the 26S proteasome, but not free ubiquitin. Processing is the amount of p50 produced in the reaction. All values relate to 100%, which is the set point for processing of p105 in a system that lacks proteasome and KPC1 (lane 1).

Molecule: WILVRLW [synthetic 7 amino acids peptide, positions 968-974 of KPC1]
- inhibition of ubiquitination of p105 by KPC1-Δ1-967 (p105 [1]; non-modified peptides (FIG. 6)): inhibited ubiquitination of p105 by KPC1-Δ1-967; also recorded: inhibits ubiquitination of p105
- inhibition of ubiquitination of p105 by KPC1-Δ1-967 (p105 [1]; peptides modified by N-terminal amidation and C-terminal acetylation (FIG. 5)): inhibited ubiquitination of p105 by KPC1-Δ1-967; also recorded: inhibits ubiquitination of p105

- ubiquitination of p105 (p105 [2]): modified p105
B1: WILVRLW-KPC1-Δ1-1061: truncated KPC1 with the 7 amino acid sequence brought closer to RING domain, SEQ ID NO: 7 (protein)
chain: WILVRLWFVDSRQLKVCATCFDLSVSLLRVLEMTITLVPEIFLDWTRPTSEMLLRRLAQLLNQVLNRVTAERNLFDRVVTLRLPGLESVDHYPILVAVTGILVQLLVRGPASEREQATSVLLADPCFQLRSICYLLGQPEPPAPGTALPAPDRKRFSLQSYADYISADELAQVEQMLAHLTSASAQAAAASLPTSEEDLCPICYAHPISAVFQPCGHKSCKACINQHLMNNKDCFFCKTTIVSVEDWEKGANTSTTSSAA

- processing of p105 by purified proteasome (p105 [3]): could not stimulate processing
B2: KPC1-Δ1-974-6xHIS: purified 6xHIS KPC1 deleted species lacking the 7 amino acids responsible for binding to p105 (protein)
chain: RGCGFGYRYTRLPHLLKTKLEDANLPSLQKPCPSTLLQQHMADLLQQGPDVAPSFLNSVLNQLNWAFSEFIGMIQEIQQAAERLERNFVDSRQLKVCATCFDLSVSLLRVLEMTITLVPEIFLDWTRPTSEMLLRRLAQLLNQVLNRVTAERNLFDRVVTLRLPGLESVDHYPILVAVTGILVQLLVRGPASEREQATSVLLADPCFQLRSICYLLGQPEPPAPGTALPAPDRKRFSLQSYADYISADELAQVEQMLAHLTSASAQAAAASLPTSEEDLCPICYAHPISAVFQPCGHKSCKACINQHLMNNKDCFFCKTTIVSVEDWEKGANTSTTSSAA
modifications: left off: small tags and cut ends

B3: KPC1-Δ1-967-6xHIS: purified 6xHIS KPC1 deleted species that has the sequence of WILVRLW (protein)
chain: WILVRLWRGCGFGYRYTRLPHLLKTKLEDANLPSLQKPCPSTLLQQHMADLLQQGPDVAPSFLNSVLNQLNWAFSEFIGMIQEIQQAAERLERNFVDSRQLKVCATCFDLSVSLLRVLEMTITLVPEIFLDWTRPTSEMLLRRLAQLLNQVLNRVTAERNLFDRVVTLRLPGLESVDHYPILVAVTGILVQLLVRGPASEREQATSVLLADPCFQLRSICYLLGQPEPPAPGTALPAPDRKRFSLQSYADYISADELAQVEQMLAHLTSASAQAAAASLPTSEEDLCPICYAHPISAVFQPCGHKSCKACINQHLMNNKDCFFCKTTIVSVEDWEKGANTSTTSSAA
modifications: left off: small tags and cut ends
- processing of p105 by purified proteasome (p105 [3]): stimulates the processing of p105 by purified proteasome
